From patent publication US20250011448A1 (STAIDSON BIOPHARMA, published 2025)

T1: human TNFR2 extracellular domain with C-terminal 10×His tag (human, UniProt P20333 23-257)
T1 construct: also called huTNFR2-His; His-tag-huTNFR2
T1 sequence: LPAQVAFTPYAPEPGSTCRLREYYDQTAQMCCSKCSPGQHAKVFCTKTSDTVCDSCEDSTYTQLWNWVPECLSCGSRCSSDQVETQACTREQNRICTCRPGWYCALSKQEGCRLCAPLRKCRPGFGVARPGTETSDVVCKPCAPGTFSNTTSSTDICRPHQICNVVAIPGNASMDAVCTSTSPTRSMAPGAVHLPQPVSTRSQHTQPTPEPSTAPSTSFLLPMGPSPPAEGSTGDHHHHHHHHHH

T2: cynomolgus monkey TNFR2 extracellular domain with C-terminal 10×His tag (cynomolgus monkey, UniProt P20333 23-257 (human entry))
T2 construct: also called cynoTNFR2-His; His-tag-cynoTNFR2
T2 chain: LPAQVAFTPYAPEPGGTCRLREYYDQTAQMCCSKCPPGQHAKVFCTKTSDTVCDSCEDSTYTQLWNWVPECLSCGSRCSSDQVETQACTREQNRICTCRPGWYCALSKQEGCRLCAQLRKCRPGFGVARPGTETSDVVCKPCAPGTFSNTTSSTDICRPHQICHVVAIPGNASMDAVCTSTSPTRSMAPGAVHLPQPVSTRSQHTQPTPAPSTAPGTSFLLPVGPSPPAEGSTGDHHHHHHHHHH

T3: cynomolgus monkey TNFR2 extracellular domain as used in the blocking ELISA (cynomolgus monkey, UniProt P20333 23-257 (human entry))
T3 construct: also called cynoTNFR2
T3 chain: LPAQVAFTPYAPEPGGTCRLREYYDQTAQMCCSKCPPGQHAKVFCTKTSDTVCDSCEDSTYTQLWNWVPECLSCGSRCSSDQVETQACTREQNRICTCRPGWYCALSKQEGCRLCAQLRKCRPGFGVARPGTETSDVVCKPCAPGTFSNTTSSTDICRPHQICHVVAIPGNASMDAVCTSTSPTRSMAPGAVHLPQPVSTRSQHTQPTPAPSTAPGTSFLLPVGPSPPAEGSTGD


Legend:
[1] = biological target: T1, human TNFR2 extracellular domain with …; assay: ELISA, plate coated with His-tagged TNFR2 ECD, serial dilution of chimeric IgG
Procedure: (§1) TNFR2 binding of purified recombinant chimeric antibodies: The huTNFR2, cynoTNFR2 antigen binding ELISA was performed on the purified recombinant chimeric antibodies. Briefly, 384-well, clear, flat bottom, high binding plates (VWR, cat #29444-096) were coated overnight at 4° C. with 1 μg/mL of huTNFR2 or cynomolgus monkey TNFR2-His in PBS. After removing the coating solution, the plates were blocked by adding blocking buffer and incubated at room temperature for 1 hour. Plates were then washed 3 times with wash buffer. Serial dilution of purified antibodies in PBS was added to individual well followed by incubation at room temperature for 1 hour. Plates were washed 3 times with wash buffer. Then 50 μL/well of goat anti hu Kappa —AP (Southern Biotech, cat #2061-04) at 1:3000 dilution or goat anti human IgG Fc-AP at 1:3000 dilution in ELISA diluent was added, incubated at room temperature for 1 hour, washed 5 times with wash buffer and developed for 30 minutes with 50 μL/well of pNPP substrate. Plates were analyzed with a Bio-TEK at 405 nm. The chimeric TNFR2 antibodies were tested positive for binding to huTNFR2 and cynoTNFR2. The TNFR2 binding EC50 values are shown in Table 6, FIG. 1A (for huTNFR2) and FIG. 1B (for cynoTNFR2).

[2] = biological target: T2, cynomolgus monkey TNFR2 extracellular …; assay: as above
Procedure: as §1

[3] = biological target: T3, cynomolgus monkey TNFR2 extracellular …; assay: blocking ELISA: antibody pre-mixed with cynoTNFR2, binding of cynoTNFR2 to coated cynomolgus monkey TNFα read out
Procedure: 96-well round bottom ELISA plates were coated overnight at 4° C. with 50 μL/well of 0.5 μg/mL human TNFα recombinant protein (R&D system, Cat #210-TA-100) in coating buffer. After removing the coating solution, blocking buffer was added into the plates followed by incubation at room temperature for 1 hour in order to block unspecific binding. During the blocking period, hybridoma antibodies samples were mixed with 0.5 μg/mL TNFR2-huFc at a 1:1 volume ratio and incubated at room temperature for another 1.5 hours. Then 50 μL/well of antigen-antibody mix solution was transferred into TNFα coated wells and incubated at room temperature for 1.5 hours. Plates were then washed 5 times with wash buffer. Then, 50 μL/well of goats anti-human IgG Fc-AP (Southern Biotech, cat #2014-04) at 1:2000 dilution in assay buffer was added, incubated at room temperature for 1 hour, washed 4 times with wash buffer and developed for 30 minutes with 50 μL/well of pNPP substrate. Plates were analyzed with a Synergy HT (Bio-TEK) at 405 nm. Parental hybridomas with the desired human and cynoTNFR2 binding as well as the ability to block human TNFR2 and human TNFα binding were prioritized for subcloning and further characterization. Subcloning was carried out with limited dilution and visual inspection was performed to ensure clonality. Hybridoma subclones were screened with the same binding and blocking assays and selected positive hits were cryopreserved.
TNFR2 blocking by purified recombinant chimeric antibodies: Human TNFR2 blocking ELISA was performed on purified recombinant chimeric antibodies following the same protocol as described above, except that 50 μL/well of serial dilution of purified antibodies (starting at 10 μg/mL, 1:3 dilution) in assay buffer was added into the reaction. The blocking IC₅₀ value represents the antibody concentration that inhibited 50% of huTNFR2 or cynoTNFR2 binding to coated human TNFα or cynomolgus monkey TNFα.

EC50 [1] [nM] | EC50 [2] [nM] | IC50 [3] [nM] | Binder
0.0293 | 0.0414 | 0.927 | 29G3 chimeric anti-TNFR2 antibody (antibody, V domains shown, Chimeric: mouse variable domains with human constant regions, made as recombinant IgG1) VH: EVMLVESGGASVKPGGSLKLSCAASGFTFSNFAMSWVRQTPEKRLEWVATIRSGDNYSYYSDNVKGRFTISRDNARNTLYLQMSSLRSKDTSIYYCARNWDKVFDYWGQGTTLTVSS VL: DIVLTQSPASLAVSLGQRATISCRASESVDSYGYSFMHWYQQKPGQPPKLLIYRASNLKSGIPARFSGSGSRTDFTLTINPVEADDVATYYCQQSNEDHTFGGGTKLEIK
0.039 | 0.0488 | 1.02 | 85G8.4 chimeric anti-TNFR2 antibody (antibody, V domains shown, Chimeric: mouse variable domains with human constant regions, made as recombinant IgG1) VH: EVQLQQSGPELVKPGASVKISCKTSGYTFTDFNMDWVKQSHGKSLEWIGYINPNNGDAAYNQKFKSKATLTVDKSSNTAYMELHSLTSDDSAVYYCARWGWAFAYWGQGTLVTVSA VL: DIVMTQSHKIMSTSVGDRVSITCKASQDVKTAVAWYQQKPGQSPKLLIYATSYRYTGVPDRFTGSGSGTDFTFTISTVQAEDLAVYYCQQHYSIPYTFGGGTKLEIK

The remaining lines, values behind:

Binder | EC50 [1] [nM] | EC50 [2] [nM] | IC50 [3] [nM]
15H10 chimeric anti-TNFR2 antibody (antibody, V domains shown, Chimeric: mouse variable domains with human constant regions, made as recombinant IgG1) VH: DVQLQESGPGLVTPSQSLSLTCSVTGYSITSGYYWNWIRQFPGNKLEWMGYITYDGNNNYNPSLKSRFSITRDTSKNQFFLKLNSVTSEDTATYYCARGDYGDSAMDYWGQGTSVTVSS VL: EIVLTQSPAITAASLGQKVTITCSASSGVNYMHWYQQKSGTSPKPWIYEISKLASGVPARFSGSGSGTSYSLTISSMEAEDAAIYYCQQWNYPLITFGAGTKVELK | 0.051 | 0.05 | 1.01
11C1 chimeric anti-TNFR2 antibody (antibody, V domains shown, Chimeric: mouse variable domains with human constant regions, made as recombinant IgG1) VH: DVQLRESGPGLVTPSQSLSLTCSVTGYSITSGYYWNWIRQIPGNKLEWMGYITYDGNNNYDPSLKNRISITRDTSKNQFFLTLNSVTSEDTATYYCARGDYGDSAMDYWGQGTSVTVSS VL: EIVLTQSPAITAASLGQKVTITCSASSSVSYMHWYQQKSGTSPKPWIYEISKLASGVPARFSGSGSGTSYSLIISSMEAEDAAIYYCQQWNYPLITFGAGTKLELK | 0.0508 | 0.057 | 1.09
